The values below come from the supplement of paper PMC12764529.

± gives the half width of the 95% confidence interval.

A short description of data set [1]: folding stability dG unfold from chymotrypsin proteolysis; higher = more stable. In outline: (§1)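 Bayesian fitting of sequencing counts gave K50 for each design. Unfolding free energy followed by setting this against a sequence-predicted unfolded-state K50 and a shared folded-state K50, either per protease or with trypsin and chymotrypsin combined. The designs, under 80 residues and lacking cysteine, were digested in a PA-tagged cDNA display format at 11 threefold-diluted protease concentrations and without protease, and only those with AlphaFold2 dimer inter-PAE above 15 were kept.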

A short description of data set [2]: folding stability dG unfold from trypsin proteolysis; higher = more stable. In outline: as §1
Data set [3] in a line: folding stability dG unfold (combined trypsin and chymotrypsin); higher = more stable. In outline:
as §1

On to “SKMYLVKIKIEVYKDGKLVKEEEIEIEVSEEEAKKLAEKLKEELPGYKVKIEIEVREIEPEDEELLKALESA [r9_782_TrROS_Hall]”, for which the “folding stability dG unfold” value in data set [1] amounted to 17.2 ± 0.226 kJ/mol; in data set [2] it was 11.2 ± 0.628 kJ/mol; in data set [3] it was 15.1 ± 0.502 kJ/mol.
Take “SKPGKTIMIMITMDNIKEFLEELPLEPNMEVEIMFMNPNGKMRTLTIRNGEIDSIEPFPNFPDYWMIMIKSA [r9_849_TrROS]”: the “folding stability dG unfold” value in data set [1] turned out to be 12.2 ± 0.293 kJ/mol; in data set [2], 11.2 ± 0.297 kJ/mol; in data set [3] it was 11.6 ± 1 kJ/mol.
On to “SKPVLVKVKIVTKNKNGKKIEKELVIEMSEEDLEKLLEELLNDPNLKDVEKIEIEVVDAETGEVYTFTFPSA [r9_97_TrROS_Hall]”, for which the “folding stability dG unfold” value worked out at 13.2 ± 0.259 kJ/mol in data set [1], 8.39 ± 0.795 kJ/mol in data set [2] and 12.1 ± 0.586 kJ/mol in data set [3].
On to “SKTIVIELENIEDMTKEELKNLIKELAEKGETVKVTILNKDGKEVKTIEIKPGEIVPFPKGSKVLIKIEKSA [r9_264_TrROS_Hall]”, for which the “folding stability dG unfold” value in data set [1] worked out at 6.24 ± 0.151 kJ/mol; in data set [2] it was 5.93 ± 0.259 kJ/mol; in data set [3] it was 5.72 ± 0.628 kJ/mol.
As to “SKTYLVKVTIEYGGKTIEIEVEVETLEEALAAVRAALPPEERAQLPPDAKVTVEVYELPEVDEETGELLESA [r9_111_TrROS_Hall]”, the “folding stability dG unfold” value is 17.6 ± 0.201 kJ/mol in data set [1], 11.8 ± 0.293 kJ/mol in data set [2] and 16.1 ± 0.247 kJ/mol in data set [3].
Regarding “SKTYTAEEIKKLFPNIKKVEVKDGKVRLTVENENGEKFEIEITFEAPKPEPEVEEEVEKKKEEELSEEDLSA [r9_427_TrROS_Hall]”, the “folding stability dG unfold” value in data set [1] amounted to 11 ± 0.586 kJ/mol; in data set [2], 5.35 ± 0.255 kJ/mol; in data set [3], 6.89 ± 1.3 kJ/mol.
On to “SKWTIDIDITYYPEYGVITVTIRYPNSWEQARFDVRSFIHEAGMPIKLEDIEIEQVEGWYEITYTIRIPPSA [r9_164_TrROS]”, for which the “folding stability dG unfold” value in data set [1] is 16.2 ± 0.544 kJ/mol; in data set [2] it was 14.6 ± 0.795 kJ/mol; in data set [3], 15.8 ± 1.63 kJ/mol.
For the sequence “SLDPGEPVYRIKVKIEMWNPNGKPIAEFTIPIRTLEEAKEAIKEMAREIAEKMGHPDMPIRIKDIEIEPYSA [r9_376_TrROS]”, the “folding stability dG unfold” value in data set [1] was found to be 9.25 ± 0.188 kJ/mol; in data set [2] it was 9.57 ± 0.138 kJ/mol; in data set [3], 9.5 ± 0.414 kJ/mol.
“SLEEKIKEAIENSPPNSEVIVPLPDDRTVKITVTPETVTGDGRRRLRIKVTITIYDPSGTKLGEKVLEIPLS [r1_386_JUSTAS]”: the entries for the “folding stability dG unfold” value in data set [1], in data set [2] and in data set [3] were 17.2 ± 0.711 kJ/mol, 11.1 ± 0.218 kJ/mol and 15.4 ± 0.669 kJ/mol, respectively.
Turning to “SLEVAAELGLSVSSLEELETDPEKGTRLLRLTAPTPGATVEVLVEVTTRKDSKGETVPEVRVLAVRTVAPSA [r9_613_JUSTAS]”, the “folding stability dG unfold” value in data set [1] is 5.56 ± 0.322 kJ/mol; in data set [2], 4.82 ± 0.126 kJ/mol; in data set [3] it was 5.27 ± 0.293 kJ/mol.
Regarding “SLGPNEDAILEEEAIIDIDPEAFRKAFGFDVPEDTKVLIITRRRVPANGDIETDPEIYIYDPKTKKFYPISA [r9_349_TrMRF]”, the “folding stability dG unfold” value in data set [1] is 9.78 ± 0.28 kJ/mol; in data set [2], 8.59 ± 0.192 kJ/mol; in data set [3], 9.57 ± 0.669 kJ/mol.
Consider “SLIPIRPLATSPSGDLLIEVPAEEDLVEEIKKYLKEKFPGYTPVEVKPVESPPLYLVLFSHPSGKKVWLGSA [r9_1164_JUSTAS]”, for which the figures for the “folding stability dG unfold” value in data set [1], in data set [2] and in data set [3] were 5.66 ± 0.343 kJ/mol, 4.05 ± 0.126 kJ/mol and 5.19 ± 0.293 kJ/mol, respectively.
Take “SLLELAKQANGPLKINVKSEWVTLPDGTPVEIINVEVSQDPNSDVATVTKTVVDPDKDTSSTSTSTIPLGSS [r1_448_JUSTAS]”: the “folding stability dG unfold” value in data set [1] was 1.32 ± 0.322 kJ/mol; in data set [2] it was -3.98 ± 0.711 kJ/mol; in data set [3], -0.111 ± 0.586 kJ/mol.
On to “SLPPSLTYTLKLSHPDGSTVTATVFPGGSLRVTVYAPGGVKVAESEYPVDDLEALMKALGIKEVLSMELASA [r9_1107_JUSTAS]”, for which the “folding stability dG unfold” value came to 11.9 ± 0.297 kJ/mol in data set [1], 8.07 ± 0.343 kJ/mol in data set [2] and 11.2 ± 0.544 kJ/mol in data set [3].
Regarding “SMEEAIEEAIKKNEEAIAAGGGPVKVELEVPGYRIDLTFSPNGLKITNIEEKNSPDGIPSVKSTSDVPPPSA [r9_308_JUSTAS]”, the figures for the “folding stability dG unfold” value in data set [1], in data set [2] and in data set [3] were -2.11 ± 0.46 kJ/mol, 3.54 ± 0.356 kJ/mol and 1.19 ± 0.586 kJ/mol, respectively.
On to “SMEIKIEITYDKDTNYLVIKVTIKLKTKTVDKKTKKVTEKEEEITLTLVIKLKPLKPGQKLKLEIKLFPESA [r9_1058_TrROS_Hall]”, for which the “folding stability dG unfold” value was 20.6 ± 1.38 kJ/mol in data set [1], 13.6 ± 0.92 kJ/mol in data set [2] and 18.4 ± 1.84 kJ/mol in data set [3].
On to “SMEILEMDIEEILSLLPEDIHPDVPYTLTVPGLEIRILDVAPVREEEGGPRPTTVIEVFLPDGPVVFPLESA [r9_279_TrMRF]”, for which the “folding stability dG unfold” value in data set [1] came out at 5.28 ± 0.289 kJ/mol; in data set [2] it was 3.65 ± 0.176 kJ/mol; in data set [3], 4.65 ± 0.502 kJ/mol.
As for “SMEPGERYRITATRKDGSRVEVEAIPGGVLRARVYLPNGELVGEAEFPVDRPVELLEALGLDELVSVEPESA [r9_1107_TrMRF]”, the results for the “folding stability dG unfold” value in data set [1], in data set [2] and in data set [3] were 10.1 ± 0.18 kJ/mol, 9.08 ± 0.213 kJ/mol and 9.71 ± 0.36 kJ/mol, respectively.
